Assay results from patent US20190367589A1 (CYTOMX THERAPEUTICS, published 2019).

Columns and labels:
Test in all cases: phage ELISA, ligand coated
[1] = target: T1, human Jagged 1-Fc (extracellular domain of human Jagged 1 fused to the Fc portion of human IgG1); R&D Systems … (human, UniProt P78504 34-1067)
T1 construct: extracellular domain; Bought reagent; also called hJag1; h Jagged 1; not shown: Fc portion of human IgG1
Excerpt: (§1) Jagged ligands were adsorbed to the wells of a 96-well ELISA plate, each ligand on a separate plate. Phage were applied to correlative wells on each plate and allowed to bind. Bound phage were visualized with an anti-M13-HRP conjugate and developed with the chromogenic substrate TMB. Also shown are the SEQ ID NOs for the each of these isolates.

[2] = target: T2, rat Jagged 1-Fc (R&D Systems Cat #599-JG-100) (rat, UniProt Q63722 34-1067, limits assumed)
T2 construct: Bought reagent; also called rJag1; rJAG1; not shown: Fc part
Excerpt: as §1

[3] = target: T3, human Jagged 2-Fc (R&D Systems Cat #1726-JG-050) (human, UniProt Q9Y219 27-1080, limits assumed)
T3 construct: Bought reagent; also called hJag2; h Jagged 2; not shown: Fc part
T3 sequence (Q9Y219 27-1080 limits assumed): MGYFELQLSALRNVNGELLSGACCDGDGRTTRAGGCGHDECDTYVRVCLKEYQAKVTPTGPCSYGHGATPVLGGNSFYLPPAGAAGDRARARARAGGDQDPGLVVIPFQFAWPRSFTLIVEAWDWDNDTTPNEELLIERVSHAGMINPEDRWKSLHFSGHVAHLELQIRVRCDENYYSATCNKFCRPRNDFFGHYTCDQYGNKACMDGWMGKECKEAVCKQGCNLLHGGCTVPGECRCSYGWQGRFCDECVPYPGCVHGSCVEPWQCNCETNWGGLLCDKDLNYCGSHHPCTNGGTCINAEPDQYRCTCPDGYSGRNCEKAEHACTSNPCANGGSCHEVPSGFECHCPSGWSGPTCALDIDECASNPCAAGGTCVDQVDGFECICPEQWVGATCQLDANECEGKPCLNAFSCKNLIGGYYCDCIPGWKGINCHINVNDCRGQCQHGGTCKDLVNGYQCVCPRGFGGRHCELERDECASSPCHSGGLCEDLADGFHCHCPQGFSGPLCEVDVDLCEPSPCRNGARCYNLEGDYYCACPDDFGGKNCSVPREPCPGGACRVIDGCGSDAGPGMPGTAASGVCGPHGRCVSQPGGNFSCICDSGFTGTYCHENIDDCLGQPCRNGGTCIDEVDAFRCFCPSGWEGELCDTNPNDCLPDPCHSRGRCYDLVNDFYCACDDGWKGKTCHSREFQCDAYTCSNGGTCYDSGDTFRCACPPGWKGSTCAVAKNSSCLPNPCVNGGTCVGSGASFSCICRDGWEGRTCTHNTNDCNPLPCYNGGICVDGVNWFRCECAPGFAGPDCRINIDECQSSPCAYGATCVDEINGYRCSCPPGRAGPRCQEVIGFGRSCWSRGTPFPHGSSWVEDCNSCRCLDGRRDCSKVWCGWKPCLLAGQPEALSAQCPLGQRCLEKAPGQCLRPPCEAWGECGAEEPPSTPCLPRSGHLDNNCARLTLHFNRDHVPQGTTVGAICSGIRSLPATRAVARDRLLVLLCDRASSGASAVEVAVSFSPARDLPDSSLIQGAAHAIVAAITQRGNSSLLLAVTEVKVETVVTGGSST
Excerpt: as §1

binding result [1]	binding result [2]	binding result [3]	Binder
binds	binds		346.8 (Fab, V domains shown, also called Lc8/Hc8) VH: EVQLLESGGGLVQPGGSLRLSCAASGFTFSSYAMSWVRQAPGKGLEWVSSIEQMGWQTYYADSVKGRFTISRDNSKNTLYLQMNSLRAEDTAVYYCAKHIGRTNPFDYWGQGTLVTVSS VL: DIQMTQSPSSLSASVGDRVTITCRASQSISSYLNWYQQKPGKAPKLLIYAASSLQSGVPSRFSGSGSGTDFTLTISSLQPEDFATYYCQQSVVAPLTFGQGTKVEIKR
binds		binds	346.24 (Fab, V domains shown, also called Lc24/Hc24) VH: EVQLLESGGGLVQPGGSLRLSCAASGFTFSSYAMSWVRQAPGKGLEWVSSIEEMGWQTLYADSVKGRFTISRDNSKNTLYLQMNSLRAEDTAVYYCAKSAAAFDYWGQGTLVTVSS VL: DIQMTQSPSSLSASVGDRVTITCRASQSISSYLNWYQQKPGKAPKLLIYAASSLQSGVPSRFSGSGSGTDFTLTISSLQPEDFATYYCQQSVVAPLTFGQGTKVEIKR
